One assay addresses hT40 (Homo sapiens, UniProt P10636). The experiment in a line: Biacore X100 SPR, scAb captured via anti-HuCk, hT40 as analyte. The class given is binding. The note with it: scAb, Table 23, T441 (hT40). How it is done:
Surface plasmon resonance (SPR) is widely regarded as the gold standard for real time measurement of protein-protein interactions such as antibody binding. All SPR experiments were carried out using a Biacore X100 machine and HBS EP+ running buffer (GE Healthcare). A ‘capture’ method was followed for affinity measurements, where an anti-human constant kappa chain (HuCk) antibody was conjugated to the surface of a CM5 sensor chip using an amine coupling kit and scAb molecules were immobilised via their HuCk domain. Amine coupling is a very common approach for immobilising the ligand to the chip surface. […] The capture antibody was diluted 1/100 in 10 mM Sodium acetate buffer pH 5.0 and passed over the activated chip surface for a period of at least 420 s. Final ligand immobilisation levels over 12,000 RU were deemed to be satisfactory.
(§1) Following immobilisation, the level of each scAb to be captured was identified using the standard SPR equation with a theoretical RMax of 100 RU. Analyte MW refers to the molecular weight of hT40 or dGA/dGAE molecules, while ligand MW refers to the molecular weight of the scAbs tested. RL is the desired capture level and S refers to the stoichiometric ratio:
The scAb to be tested was added only to flow cell 2 so that flow cell 1 could act as a control to subtract any interaction with the analyte and the chip surface. Both single and multi-cycle runs were utilised using wizards developed in the Biacore X100 control software which are both accepted methods of kinetic analysis (Karlsson, R., et al. Analyzing a kinetic titration series using affinity biosensors (2006) Analytical Biochemistry 349:136-47). The multi-cycle protocol was as follows-Three start-up cycles composed of an initial capture, to the desired level, of the scAb to be tested was performed followed by a 30 s injection of glycine buffer pH 2.0 after each cycle to regenerate the chip surface. […] Following three start-up cycles increasing concentrations (0.15625 nM-100 nM) of the target to be tested were added to the chip surface after the desired scAb capture. The target was added for a 120 s association period and 420 s dissociation period followed by another regeneration, 30 s injection of glycine buffer pH 2.0 in between each cycle.
(§2) The single cycle kinetics protocol was similar and utilised the same level of scAb capture. Three start-up cycles were used followed by 5 increasing concentrations of the analyte (6.25 nM-100 nM) for an association period of 120 s followed by a dissociation period of 420 s for each concentration. In single cycle kinetics the regeneration step was performed only after the final analyte concentration was added. Binding responses were analysed in Biacore X100 evaluation software and data fitted to a 1:1 binding model to obtain kinetic and affinity characterisation.
A general note: Surface plasmon resonance follows binding to a sensor surface in real time, without labels.

A further assay deals with dGA (Homo sapiens, UniProt P10636). The experiment in a line: Biacore X100 SPR, scAb captured via anti-HuCk, dGA as analyte. It counts as binding. The note with it: dissociation rate. On the procedure:
Surface plasmon resonance (SPR) is widely regarded as the gold standard for real time measurement of protein-protein interactions such as antibody binding. All SPR experiments were carried out using a Biacore X100 machine and HBS EP+ running buffer (GE Healthcare). A ‘capture’ method was followed for affinity measurements, where an anti-human constant kappa chain (HuCk) antibody was conjugated to the surface of a CM5 sensor chip using an amine coupling kit and scAb molecules were immobilised via their HuCk domain. Amine coupling is a very common approach for immobilising the ligand to the chip surface. The chip surface has a dextran matrix derivatised with carboxyl groups, which after activation with N-hydroxysuccinimide (NHS) and 1-ethyl-3-(3-dimethylaminopropyl) carbodiimide (EDC), form reactive succinimide esters which allows the covalent capturing of the ligand via any available primary amine groups (e.g. Lysine) on the ligand (in this case anti-HuCk antibody). The capture antibody was diluted 1/100 in 10 mM Sodium acetate buffer pH 5.0 and passed over the activated chip surface for a period of at least 420 s. Final ligand immobilisation levels over 12,000 RU were deemed to be satisfactory.
as §1
The scAb to be tested was added only to flow cell 2 so that flow cell 1 could act as a control to subtract any interaction with the analyte and the chip surface. Both single and multi-cycle runs were utilised using wizards developed in the Biacore X100 control software which are both accepted methods of kinetic analysis (Karlsson, R., et al. Analyzing a kinetic titration series using affinity biosensors (2006) Analytical Biochemistry 349:136-47). The multi-cycle protocol was as follows-Three start-up cycles composed of an initial capture, to the desired level, of the scAb to be tested was performed followed by a 30 s injection of glycine buffer pH 2.0 after each cycle to regenerate the chip surface. The regeneration step removed any captured scAb whilst leaving the capture antibody intact and able to repeat the capture for the next cycle. Following three start-up cycles increasing concentrations (0.15625 nM-100 nM) of the target to be tested were added to the chip surface after the desired scAb capture. The target was added for a 120 s association period and 420 s dissociation period followed by another regeneration, 30 s injection of glycine buffer pH 2.0 in between each cycle.
as §2

The next assay concerns the target htau40 (Homo sapiens, UniProt P10636). As to the kind of experiment: Biacore X100 SPR of anti-tau mAbs on immobilised htau40. The class given is binding. On the procedure: For anti-tau mAb SPR measurements, htau40 was conjugated to the surface of a CM5 sensor chip using amine coupling as explained previously. Briefly, 2 μg/mL htau40 in 10 mM Sodium acetate buffer (pH 4.0) was passed over the activated chip surface (EDC/NHS) in flow cell 2 for a period for 45 s followed by blocking with 1 M ethanolamine-HCl PH 8.5. Flow cell 1 was set up as reference control and blocked simultaneously. Final immobilisation level of htau40 (Rmax) was approximately 250 RU. Following a minimum of three start-up cycles, increasing concentrations (0.78 nM-25 nM) of the mAb in HBS-EP+ buffer was added at a rate of 30 μL/min to the chip. The mAb was added for a 120 s association period and 600 s dissociation period followed by a regeneration cycle of 30 s injection of glycine buffer pH 1.5 in between each cycle. Binding responses were analysed in Biacore X100 evaluation software and data fitted to a 1:1 binding model to obtain kinetic and affinity characterisation.
For anti-tau mAb SPR measurements (Biacore X100™) and epitope mapping, the same methodologies described above (see Example 16) were followed. Kinetic rates and equilibrium binding constants of additional anti-tau mAbs and the regions recognised on hT40 are given in the Table 25 below

Assay [1] deals with hT40, dGA, dGAE and truncated tau fragments/peptides. The experiment in a line: Binding ELISA for epitope mapping with truncated tau proteins and biotinylated 13mer peptides. Details: species or system human. The note with it: direct binding ELISA. How it is done: A series of binding ELISA was performed using various truncated versions of the tau protein and 13mer peptide libraries spanning the entire hT40 molecule for mapping the epitopes of anti-tau scAbs (Full list of protein antigens used is given in Table 14). In general, ELISA plates were coated with 1 μg/ml hT40 or dGA or dGAE or other truncated versions of the protein and in the case of biotinylated peptides, plates were coated with 5 μg/ml Streptavidin followed by 1 μg/ml biotinylated peptide. The plates were blocked with 2% MPBS and scAb samples added at desired starting concentrations and double diluted across the plate. Binding was detected using anti-Human C Kappa HRP conjugated secondary antibody and the resulting immunoreaction was developed and absorbance values measured as described above.
Similarly, dGA binding ‘NS’, ‘S’ and ‘M’ group scAbs were subjected to further antigen binding ELISA using shorter tau proteins and biotinylated 13mer peptides as shown below (FIGS. 10A-F) and (FIGS. 11A-R).
For anti-tau mAb SPR measurements (Biacore X100™) and epitope mapping, the same methodologies described above (see Example 16) were followed.
(In an ELISA, binding on a coated surface is turned into a signal by an enzyme label.)

For assay [2], the system named is alanine substituted 13mer tau peptides. The experiment in a line: Alanine scanning mutagenesis (ASM) peptide ELISA. The note with it: numbering according to SEQ ID NO: 1; description text 'may be'. The class given is binding, human. How it is done: To further elucidate epitopes of the scAb panel, and identify the critical amino acids needed for binding, alanine scanning mutagenesis of the parent 13 aa peptides for scAbs CE2, S1D12, CA4 and S1G2 was performed. […] Briefly, 5 μg/ml streptavidin (Thermo Fisher) was adsorbed to Nunc 96-well MaxiSorp plates and following incubation at 37° C., for 1 h, the plates were washed as normal and blocked with 2% MPBS. N-terminally biotinylated peptides (Prolmmune Ltd) were added to the plates and incubated for 1 h at 37° C. Subsequently, test scAbs at starting concentrations of 100-500 nM was added and double diluted across the plate for each peptide and incubated for 1 h at 37° C. Rest of the ELISA was conducted as described above and the plates were read at absorbance 450 nm. Immunoreactivity of the scAb of interest was quantified as the % of scAb was bound for each peptide at a chosen concentration (FIG. 15-20).

Another assay concerns human tau and mouse tau. The experiment in a line: Western blot of WT, L66+/+ and L1+/+ mouse brain homogenates. The note with it: 20 μg protein, 5-month-old mice. It counts as binding. On the procedure: Protein equivalent to 20 μg from each brain extract was separated using 4-20% bis-tris gels and run in 1×MES buffer.
A band is detected in each sample (WT, L66^+/+ and L1^+/+) with an apparent molecular weight of approximately 55 kDa. This band most likely corresponds to endogenous mouse tau which is of a similar size. In the L66^+/+ samples, a second band running at approximately 68 kDa is also detected. The presence of numerous other bands indicates proteolytic truncation of tau within brain homogenates.
A general note: A western blot detects proteins with antibodies after separation by electrophoresis.

[3] abbreviates: mAb, Table 27, immobilised hT40.
[4] abbreviates: newly converted mAbs, Table 25 (Example 28), hT40.

The values that follow come from patent US12624096B2, “Anti-tau antibodies and methods of use thereof” (GTInvent Limited, priority 2020, dated 2026).

Entries after “also recorded” stand apart in the source; their conditions may differ.

Sequence of hT40 (P10636 1-441 isoform P10636-8): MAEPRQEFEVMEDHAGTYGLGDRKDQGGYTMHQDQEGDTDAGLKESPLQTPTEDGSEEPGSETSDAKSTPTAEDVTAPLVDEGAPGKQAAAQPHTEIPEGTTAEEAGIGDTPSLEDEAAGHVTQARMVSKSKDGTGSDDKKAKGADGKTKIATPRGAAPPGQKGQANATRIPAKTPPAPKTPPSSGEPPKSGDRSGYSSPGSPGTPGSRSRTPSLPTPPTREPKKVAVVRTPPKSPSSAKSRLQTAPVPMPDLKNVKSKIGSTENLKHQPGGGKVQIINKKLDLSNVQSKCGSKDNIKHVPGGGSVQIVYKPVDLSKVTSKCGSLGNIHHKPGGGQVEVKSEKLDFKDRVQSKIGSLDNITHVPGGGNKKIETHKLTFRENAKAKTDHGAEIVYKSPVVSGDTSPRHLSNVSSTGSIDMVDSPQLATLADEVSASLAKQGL
Sequence of htau40 (P10636 1-441 isoform P10636-8): as above
Sequence of dGA (P10636 614-707): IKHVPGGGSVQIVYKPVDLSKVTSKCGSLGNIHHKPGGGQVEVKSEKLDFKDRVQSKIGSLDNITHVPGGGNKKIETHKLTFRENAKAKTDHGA

B1: CE2: anti-tau clone referred to as CE2 or E1B8, SEQ ID NO: 366 (protein)
scFv: QVQLQESGPSLVKPSQTLSLTCTVSGFSLTNYPVGWVRQAPGKALEWIGNIENDGSANYASALKSRLSITRDTSKNQVSLSLSSATTEDTAVYYCGREFGGSDGYTYFVDIDYWGPGLLVTVSSEGKSSGASGESKVDDQAVLTQPSSVSKSLGQSVSITCSGSSSNVGYGNYVSWFQQVPGSAPKILIYGATSRASGVPDRFSGSRSGNTATLTITSLQAEDEADYYCASYDGSSSGVFGSGTRLTVLG
modifications: CE2/E1B8 amino acid sequence
B1: the ka in the assay with hT40 was determined as 213700 M⁻¹ s⁻¹; with htau40 (setting [3]), 457900 M⁻¹ s⁻¹; in the assay with htau40 (setting [4]), 323800 M⁻¹ s⁻¹. The kd with hT40 came to 0.001077 s⁻¹; with htau40 (setting [3]), 0.005218 s⁻¹; with htau40 (setting [4]), 0.001367 s⁻¹. Further, the “Kd” value with dGA amounted to 0.00242 s⁻¹. The “cross-reactivity of 'E' group scAbs using hT40, dGA and dGAE antigens” value in assay [1] is given as “cross-reacts with dGA; also recorded: specific binding to the tau peptide representing amino acids from 313-336”. For the same molecule, the “Critical residues of the epitope” value in assay [2] was 323 (G), 324 (S), 325 (L), 326 (G), 327 (N) and/or 328 (I).

B2: CC7: anti-tau clone, SEQ ID NO: 365 (protein)
scFv: QVQLQESGPSLVKPSQTLSLTCTVSGFSLTSNAVIWVRQAPGKAPEWVALIDVDGDAAYDPALKSRLSITRDTSKSQVSLSLRSVTTEDTAVYYCARDYGSWGYVSDIDYWGPGLLVTVSSEGKSSGASGESKVDDRVVRTQPSSVSGSLGQRVSITCSGSYITGSSVGWFQQVPGSGLKTVIYDNNDRPSGVPDRFSGSKSGDTATLTISSLQAEDEADYYCASYDTSNIGLFGSGTRLTVLG
modifications: CC7 amino acid sequence
Consider B2, for which, in the assay with hT40, the ka is 295700 M⁻¹ s⁻¹ and the kd stood at 0.0003659 s⁻¹. For the same molecule, in the assay with htau40 (setting [3]), the ka is 4.576e+06 M⁻¹ s⁻¹ and the kd was found to be 0.03164 s⁻¹. For the same molecule, in the assay on human tau and mouse tau, the “bands detected in western blot of WT, L66+/+ and L1+/+ brain homogenates” value is “show specificity for human tau”.

B3: NS2A1: anti-tau clone, SEQ ID NO: 220 (protein)
scFv: QVQLQESGPSLVKPSQTLSLTCTVSGFSLSTNSVGWVRQAPGKAPEWVAGIDTDGEEGFNPVLKSRLSITRDTSKSQVSLSLSNVTSEDTAVYYCGRSYRTDGLAYGYVQAIDYWGPGLLVTISSEGKSSGASGESKVDDQSVLTQPSSVSGSPGQTVSITCSGSYIGSSGVGWFQQLPGSGLRTIIVASDGRPSGVPDGFSMSKSGNTATLTISSLQAEDEADYFCGSSDRTQYTGLFGSGTRLTVLG
modifications: NS2A1 amino acid sequence
B3: the ka worked out at 252100 M⁻¹ s⁻¹ with hT40 and 893700 M⁻¹ s⁻¹ with htau40 (setting [3]). For the same molecule, the kd in the assay with hT40 stood at 0.0007393 s⁻¹; with htau40 (setting [3]), 0.002621 s⁻¹. Besides, the “Kd” value is 0.00102 s⁻¹ with dGA and 1e-08 M with htau40 (mAb, Table 27, read-out: kD (M) for hT40 binding).

B4: E2B7: anti-tau clone, SEQ ID NO: 254 (protein)
scFv: QVQLQESGPSLVKPSQTLSLTCTVSGFSLTSWGVAWVRQAPGKALEWLGTMRSGGGTEYNPALKSRLSITRDTSKSQVSLSLSSVTTEDMAMYYCARGYLSGIHYAWGRGLLVSVSSEGKSSGASGESKVDDQAVLTQLSSVSGSLGQRVSITCSGSSSNVGDGDYVGWFQQLPGSAPKLLIYSARNRASGVPDRFSGSRSGNTATLTITSLQAEDEADYYCASIDTSRSHIFGSGTRLTVLG
modifications: E2B7 amino acid sequence
Take B4: the “cross-reactivity of 'E' group scAbs using hT40, dGA and dGAE antigens” value in assay [1] is listed as “specific dGAE binding”.
